Measurements from article PMC4890538 (Angewandte Chemie (International ed. in English), 2015).

Columns and labels:
[1] = target: L1R, vaccinia virus L1R myristyl protein (vaccinia virus, UniProt P07612 1-250)
[2] = target: T1, IL17-F (Interleukin member of the highly homologous IL-17 family) (UniProt Q96PD4 31-163)
T1 sequence (looked up): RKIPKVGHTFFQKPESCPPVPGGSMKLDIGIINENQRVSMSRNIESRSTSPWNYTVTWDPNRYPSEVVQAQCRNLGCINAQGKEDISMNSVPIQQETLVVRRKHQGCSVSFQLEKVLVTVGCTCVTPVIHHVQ

[3] = target: p-Akt2 (phospho serine / threonine kinase) (UniProt P31751 1-481)

Binder: DARNI [Cy(DARNI-click)]
- EC50 [1]: 875 nM

Binder: RRATS [Cy(RRATS-click)]
- EC50 [2]: 66 nM

Binder: YYTYT [Cy(YYTYT-click)]
- EC50 [3]: 122 nM
